The numbers were not newly measured in publication PMC2478715, which cites them from elsewhere.

This data set concerns HMGB1 (purified from mammalian source) (rat (liver nuclei), human (HeLa) or monkey (CV1); preparation per gel not specified). Description: cited value; method not stated here. To be noted: 50 mM NaCl, 25 mM Tris-HCl pH 7.5, 1 mM DTT, 1 mM EDTA, 0.1% Triton X-100, 100 ug/mL BSA, 2% glycerol, 25 uL, 20 min at 37 C; 4% PAGE in 0.5x TBE at room ….

For the substance “hcDNA (hemicatenated DNA loop, 120 bp fragment)”, the Kd is less than 0.15 pM.
